Laboratory results from the supplement of paper PMC5998384.

How the values were obtained:
[1] = system: HeLa Kyoto; experiment: solubility in G1/S (NP-40 vs SDS abundance) (log2 ratio); higher = more soluble; conditions: cell cycle stage: G1/S
[2] = system: HeLa Kyoto; experiment: thermal stability score vs G1/S (z-score of summed log2 fold changes over temperatures); higher = more thermally stable than in G1/S
[3] = system: HeLa Kyoto; experiment: melting temperature (median over replicates), in situ; higher = more thermally stable
[4] = system: HeLa Kyoto; experiment: solubility change mitosis vs G1/S (difference of NP-40 vs SDS log2 ratios) (log2 ratio difference); higher = more soluble in mitosis
[5] = cell cycle stage: early G1 (4.5 h after nocodazole release)
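Wherever melting temperature (median over replicates), in situ is given: HeLa Kyoto cells synchronized by double thymidine or nocodazole block, proteins quantified by TMT10plex mass spectrometry, three independent biological replicates.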
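Wherever solubility change mitosis vs G1/S (difference of NP-40 vs SDS log2 ratios) is given: synchronized HeLa Kyoto cells (double thymidine block for G1/S, nocodazole release for mitosis), protein amounts in NP-40 versus SDS lysates quantified by mass spectrometry, three biological replicates.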
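Wherever solubility in G1/S (NP-40 vs SDS abundance) is given: HeLa Kyoto cells arrested at G1/S by double thymidine block, proteins quantified by TMT10plex mass spectrometry in mild NP-40 versus SDS extracts, three biological replicates.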
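Wherever thermal stability score vs G1/S (z-score of summed log2 fold changes over temperatures) is given: synchronized HeLa Kyoto cells, proteins quantified by TMT10plex mass spectrometry, three biological replicates, mitosis taken 0.5 h after nocodazole release, G1/S directly after double thymidine block.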

Substance | solubility in G1/S (log2) [1] | thermal stability score [2, 5] | thermal stability score ([2]; cell cycle stage: mitosis) | melting temperature ([3]; cell cycle stage: G1/S) | melting temperature ([3]; cell cycle stage: mitosis) | solubility change mitosis (log2) [4]
MDPECAQLLPALCAVLVDPRQPVADDTCLEKLLDWFKTVTEGESSVVLLQEHPCLVELLSHVLKVQDLSSGVLSFSLRLAGTFAAQENCFQYLQQGELLPGLFGEPGPLGRATWAVPTVRSGWIQGLRSLAQHPSALRFLADHGAVDTIFSLQGDSSLFVASAASQLLVHVLALSMRGGAEGQPCLPGGDWPACAQKIMDHVEESLCSAATPKVTQALNVLTTTFGRCQSPWTEALWVRLSPRVACLLERDPIPAAHSFVDLLLCVARSPVFSSSDGSLWETVARALSCLGPTHMGPLALGILKLEHCPQALRTQAFQVLLQPLACVLKATVQAPGPPGLLDGTADDATTVDTLLASKSSCAGLLCRTLAHLEELQPLPQRPSPWPQASLLGATVTVLRLCDGSAAPASSVGGHLCGTLAGCVRVQRAALDFLGTLSQGTGPQELVTQALAVLLECLESPGSSPTVLKKAFQATLRWLLSSPKTPGCSDLGPLIPQFLRELFPVLQKRLCHPCWEVRDSALEFLTQLSRHWGGQADFRCALLASEVPQLALQLLQDPESYVRASAVTAMGQLSSQGLHAPTSPEHAEARQSLFLELLHILSVDSEGFPRRAVMQVFTEWLRDGHADAAQDTEQFVATVLQAASRDLDWEVRAQGLELALVFLGQTLGPPRTHCPYAVALPEVAPAQPLTEALRALCHVGLFDFAFCALFDCDRPVAQKSCDLLLFLRDKIASYSSLREARGSPNTASAEATLPRWRAGEQAQPPGDQEPEAVLAMLRSLDLEGLRSTLAESSDHVEKSPQSLLQDMLATGGFLQGDEADCY [BRAT1] | 0.0286 | 1.55 | 4.01 | 46.5 °C | 48.4 °C | -0.141
MVHFCGLLTLHREPVPLKSISVSVNIYEFVAGVSATLNYENEEKVPLEAFFVFPMDEDSAVYSFEALVDGKKIVAELQDKMKARTNYEKAISQGHQAFLLEGDSSSRDVFSCNVGNLQPGSKAAVTLKYVQELPLEADGALRFVLPAVLNPRYQFSGSSKDSCLNVKTPIVPVEDLPYTLSMVATIDSQHGIEKVQSNCPLSPTEYLGEDKTSAQVSLAAGHKFDRDVELLIYYNEVHTPSVVLEMGMPNMKPGHLMGDPSAMVSFYPNIPEDQPSNTCGEFIFLMDRSGSMQSPMSSQDTSQLRIQAAKETLILLLKSLPIGCYFNIYGFGSSYEACFPESVKYTQQTMEEALGRVKLMQADLGGTEILAPLQNIYRGPSIPGHPLQLFVFTDGEVTDTFSVIKEVRINRQKHRCFSFGIGEGTSTSLIKGIARASGGTSEFITGKDRMQSKALRTLKRSLQPVVEDVSLSWHLPPGLSAKMLSPEQTVIFRGQRLISYAQLTGRMPAAETTGEVCLKYTLQGKTFEDKVTFPLQPKPDVNLTIHRLAAKSLLQTKDMGLRETPASDKKDALNLSLESGVISSFTAFIAINKELNKPVQGPLAHRDVPRPILLGASAPLKIKCQSGFRKALHSDRPPSASQPRGELMCYKAKTFQMDDYSLCGLISHKDQHSPGFGENHLVQLIYHQNANGSWDLNEDLAKILGMSLEEIMAAQPAELVDSSGWATILAVIWLHSNGKDLKCEWELLERKAVAWMRAHAGSTMPSVVKAAITFLKSSVDPAIFAF [VWA5A] | 0.137 | -0.428 | -0.133 | 52.3 °C | 52.2 °C | -0.132
ARHGAP35 | -0.0977 | 1.69 | 3.46 | 48.6 °C | 49.4 °C | -0.124
MFFTCGPNEAMVVSGFCRSPPVMVAGGRVFVLPCIQQIQRISLNTLTLNVKSEKVYTRHGVPISVTGIAQVKIQGQNKEMLAAACQMFLGKTEAEIAHIALETLEGHQRAIMAHMTVEEIYKDRQKFSEQVFKVASSDLVNMGISVVSYTLKDIHDDQDYLHSLGKARTAQVQKDARIGEAEAKRDAGIREAKAKQEKVSAQYLSEIEMAKAQRDYELKKAAYDIEVNTRRAQADLAYQLQVAKTKQQIEEQRVQVQVVERAQQVAVQEQEIARREKELEARVRKPAEAERYKLERLAEAEKSQLIMQAEAEAASVRMRGEAEAFAIGARARAEAEQMAKKAEAFQLYQEAAQLDMLLEKLPQVAEEISGPLTSANKITLVSSGSGTMGAAKVTGEVLDILTRLPESVERLTGVSISQVNHKPLRTA [FLOT1] | -0.837 | -2.16 | 0.224 | 55.3 °C | 53.7 °C | 0.121
MGPRKKSVKTCIMNNEIPEEMTADETKDYMNQLSHEVLCHIFRYLPLQDIMCMECLSRKLKEAVTLYLRVVRVVDLCAGRWWEYMPSGFTDASFLTLLKKMPDVEQLYGLHPRYLERRRVRGHEAFSIPGVLEALQACPNLVGVETSHLELVESIWTYMPHVHILGKFRNRNGAFPIPPENKLKIPIGAKIQTLHLVGVNVPEIPCIPMLRHLYMKWVRLTKPQPFKDFLCISLRTFVMRNCAGPTNSLKYVPLVTGLASARNLEHLEMVRVPFLGGLIQHVVEDSWRSGGFRNLHTIVLGACKNALEVDLGYLIITAARRLHEVRIQPSLTKDGVFSALKMAELEFPQFETLHLGYVDEFLLQSRMANADLVKYGLADVVENPGIITDIGMKAVNEVFSCIKYLAIYNCPHLHNPYNWISDHSRWTRLVDINLVRCHALKLDSFGQFIELLPSLEFISLDQMFREPPKGCARVGLSAGTGIGVSSALVSNQNSNNDDNNAQNNNANIHDNNHHHPDDSDEENDFRQDLQPGEQQFAADALNEMEDIVQEDGEVVAESGNNTPAHSQAIIPVDVDEEQAGPSGLQRVVKPTSITVHDSESDDEEDSLELQEVWIPKNGTRRYSEREEKTGESVQSRELSVSGKGKTPLRKRYNSHQMGQSKQFPLEESSCEKGCQVTSEQIKADMKAARDIPEKKKNKDVYPSCSSTTASTVGNSSSHNTASQSPDFVRTVNSGGSSEPSPTEVDVSRQCACSPGGSEDSEAMEEGDAESSVCPRCCCHRPQESQRRTSRCSDEERPSTSRACVVNGPDGTRSAFSFRTLPQGGSSGPAHDERTNGSGSGATGEDRRGSSQPESCDVQSNEDYPRRPLTRARSRLSHVLLVSESEVAKTKPRHAMKRKRTADKSTSTSDPVIEDDHVQVLVLKSKNLVGVTMTNCGITDLVLKDCPKMMFIHATRCRVLKHLKVENAPIVNRFDYAQCKKLNMDQVLDQILRMPPERNRIIYLRPMQQVDTLTLEQKLFSGPYPYHICIIHEFSNPPNVRNKVRIRSWMDTIANINQELIKYEFFPEATRSEEDLKKYPKYPWGREIYTLEGVVDGAPYSMISDFPWLRSLRAAEPNSFARYDFEDDEESTIYAPRRKGQLSADICMETIGEEISEMRQMKKGVFQRVVAIFIHYCDVNGEPVEDDYI [FBXO38] | -0.338 | -0.768 | -0.745 | 51.6 °C | 51.3 °C | -0.0833
MALLVLGLVSCTFFLAVNGLYSSSDDVIELTPSNFNREVIQSDSLWLVEFYAPWCGHCQRLTPEWKKAATALKDVVKVGAVDADKHHSLGGQYGVQGFPTIKIFGSNKNRPEDYQGGRTGEAIVDAALSALRQLVKDRLGGRSGGYSSGKQGRSDSSSKKDVIELTDDSFDKNVLDSEDVWMVEFYAPWCGHCKNLEPEWAAAASEVKEQTKGKVKLAAVDATVNQVLASRYGIRGFPTIKIFQKGESPVDYDGGRTRSDIVSRALDLFSDNAPPPELLEIINEDIAKRTCEEHQLCVVAVLPHILDTGAAGRNSYLEVLLKLADKYKKKMWGWLWTEAGAQSELETALGIGGFGYPAMAAINARKMKFALLKGSFSEQGINEFLRELSFGRGSTAPVGGGAFPTIVEREPWDGRDGELPVEDDIDLSDVELDDLGKDEL [PDIA6] | 0.44 | 4.84 | 4.76 | 55.1 °C | 56.2 °C | -0.1
MFSKLAHLQRFAVLSRGVHSSVASATSVATKKTVQGPPTSDDIFEREYKYGAHNYHPLPVALERGKGIYLWDVEGRKYFDFLSSYSAVNQGHCHPKIVNALKSQVDKLTLTSRAFYNNVLGEYEEYITKLFNYHKVLPMNTGVEAGETACKLARKWGYTVKGIQKYKAKIVFAAGNFWGRTLSAISSSTDPTSYDGFGPFMPGFDIIPYNDLPALERALQDPNVAAFMVEPIQGEAGVVVPDPGYLMGVRELCTRHQVLFIADEIQTGLARTGRWLAVDYENVRPDIVLLGKALSGGLYPVSAVLCDDDIMLTIKPGEHGSTYGGNPLGCRVAIAALEVLEEENLAENADKLGIILRNELMKLPSDVVTAVRGKGLLNAIVIKETKDWDAWKVCLRLRDNGLLAKPTHGDIIRFAPPLVIKEDELRESIEIINKTILSF [OAT] | 0.246 | 0.897 | -0.508 | 52.8 °C | 53 °C | -0.168
